Data published in the MegaScale stability set (Tsuboyama et al. 2023).

B1: 5KPH (parent)
chain: EEKRQVKQVAKEKLLEQSPNSKVQVRRVQKQGNTIRVELELRTNGKKENYTVEVERQGNTWTVKRITRT
B2: EEHEE_rd3_0130 (parent)
chain: TKIIVNGKTFTAPTEEEAQKIAEKLAKKAGLTVHKKNGTFELK

Variants of: B1
Test: folding stability dG (cDNA display proteolysis); higher = more stable
Conditions: PBS, room temperature

Folding stability dG [kcal/mol]: each site, then its substitutions
E2: S 3.47 | R 3.19 | A 3.63 | P 2.94 | Y 3.08 | G 3.24 | K 2.91 | Q 3.9 | C 3.69 | D 3.9 | F 3.16 | W 4.05 | H 3.5 | N 3.28 | V 3.73 | L 3.66 | I 3.93 | M 3.58 | T 3.74
V9: L 4.16 | P 1.9 | G 1.81 | H 2.88 | N 2.18 | C 3.28 | W 2.74 | K 3.39 | I 4.22 | D 1.82 | A 3.39 | T 3.15 | Q 3.26 | Y 3.38 | M 3.83 | S 2.4 | F 3.82 | E 2.33 | R 3.07
K7: V 4.86 | S 4.63 | Q 4.19 | Y 3.86 | I 4.82 | F 4.07 | E 4.5 | N 3.39 | H 3.57 | T 4.58 | G 4.38 | R 3.85 | C 4.11 | L 4.49 | P 2.66 | M 4.8 | D 3.14
K3: E 4.84 | Y 4.74 | T 4.31 | D 4.41 | C 4.21 | V 4.72 | R 4.07 | A 4.28 | P 3.01 | S 4.17 | Q 4.19 | G 3.73 | N 4.25 | F 4.65 | H 4.2 | W 4.88 | M 4.84
A10: E 1.78 | D 1.8 | C 3.26 | G 2.6 | F 2.24 | H 1.69
Q5: R 4.19 | M 4.07 | F 3.83 | L 3.9 | P 2.86 | D 3.73 | V 3.73 | G 3.64 | K 3.86 | E 3.88 | I 3.95 | N 3.54 | S 3.84 | C 3.54 | W 3.62 | T 3.93 | Y 3.64 | A 3.93 | H 3.77
Q8: N 3.57 | E 3.74 | H 3.62 | S 3.55 | Y 2.78 | R 3.92 | D 3.67 | A 3.76 | V 3.31 | F 3.03 | I 3.76 | C 3.49 | P 2.29 | K 4.16 | M 3.59 | L 3.51 | W 2.56 | G 3.2 | T 3.51
E1: C 3.69 | P 3.19 | I 2.88 | S 3.56 | W 2.91 | H 3.61 | D 3.52 | L 3.06 | T 3.46 | V 3.38 | M 3.33 | G 3.49 | Q 3.64 | N 3.37 | A 3.75 | Y 2.92 | F 3 | R 3.25 | K 3.85
V6: E 2.28 | T 2.66 | A 4.84 | Y 3.13 | G 3.48 | D 1.95 | I 4.24 | R 1.97 | N 1.92 | S 3.37 | L 3.46 | P 3.55 | M 3.03 | K 2.05 | W 3.61 | H 2.57 | C 3.31 | F 2.99 | Q 2.78
R4: F 3.64 | C 3.57 | M 3.84 | Q 3.81 | W 3.79 | Y 3.64 | T 3.69 | K 3.9 | D 3.98 | H 3.79 | G 3.38 | I 3.04 | L 3.54 | A 3.86 | E 4.22 | V 3.34 | S 3.72 | P 2.55 | N 3.72

Variants of: B2
Test: as above
Conditions: PBS, room temperature

Folding stability dG [kcal/mol], by site and new letter:
P13: I 0.41 | D 0.664 | M 0.526
K36: V 1.52 | D 0.477
K2: E 0.085 | N 0.108 | P 0.169 | A 0.458
E15: D 0.325
K43: D 0.338 | N 0.532 | V 1.3 | C 1.76 | E 0.545
L31: P -0.624 | E -0.89 | S -0.591 | Q -0.255
V33: L 0.891 | N -0.582 | G -0.128 | E -0.529
F40: M 0.218 | C 0.982
H34: P -0.455 | V 1.25 | I 1.2 | Q 0.444 | G 0.117 | F 0.97 | D 0.195 | L 0.902
E23: C 1.52 | L 0.894
I21: S -0.174 | N -0.725
K24: W 1.78 | V 0.829
E16: Q 0.827 | P 0.061 | S 0.797 | C 0.888
A12: R 0.461 | K -0.014 | E -0.465 | S 0.182
L25: A -0.68 | M 0.784 | F 0.651
T9: I 1.01 | S 0.461
L42: I 0.782 | D 0.274 | Q 0.021
I4: M 0.561 | R 0.615 | F 0.575
N6: S 0.36 | V -0.097 | H 0.793
V5: M 0.826 | D -0.878 | E -0.633 | P -0.548
K8: S 0.223 | R 0.999 | H 0.948 | L 0.895 | Q 0.67 | N 0.238 | E 0.053
T14: W 0.054 | P -0.49 | F -0.544 | Y -0.419
K28: R 1.14 | N 0.582 | E 0.862
K20: W 0.804 | L 0.783 | I 0.836 | E 0.663
E17: V 0.922 | F 0.623 | C 1.46 | S 0.635 | D 0.564
T11: Y 1.42 | L 0.81
A18: N -0.938 | K -0.952 | G 0.375 | S -0.692 | F -0.368 | Y -0.863
K27: D 0.266 | Y 0.616 | P -0.957 | C 1.03 | L 0.834 | T 0.52
T32: R 0.561 | N 0.28 | Q 0.523
A29: T 1.2 | D 0.326
T39: S 1.24 | E 0.778 | Y 1.57 | Q 1.29 | V 1.39 | K 0.554 | L 0.663 | H 1.33
G30: V -0.549
K35: L 0.661 | G 0.063 | P -0.427 | A 0.318 | N 0.482 | V 0.732 | Y 1.55
I3: M -0.368 | T -0.896 | Y 0.08 | P -0.552
A22: R -0.631 | H -0.772 | G -0.83 | V 0.71
A26: G 0.163 | L 0.094 | K -0.188 | Y -0.009
E41: P 0.028 | T -0.004 | R -0.631 | M 0.498 | I 1.48
G7: A 0.007 | R 0.021 | F 0.265 | H 0.106 | E -0.721
F10: M 0.05 | I 0.454 | L 0.392
N37: D 0.873 | A 0.339
Q19: E 0.914 | H 0.606
T1: Y 2.19 | V 1.28 | N 0.378 | E -0.989 | P 0.553
G38: W -0.047 | C 0.297 | T -0.511 | M -0.52
